Patent US12065471B2, “B*44 restricted peptides for use in immunotherapy against cancers and related methods” (Immatics Biotechnologies GmbH, priority 2018, dated 2024)

Target: HLA-B*44:05 (Homo sapiens, UniProt P01889, A223V/A65T/A93T/A95T/D201E/D98Y/E176V/E187L/E204Q/E69K/G107R/H137Y/K202T/L105A/L119I/N104T/N87E/Q56L/Q94N/R106L/R155S/R180D/S101N/S121R/S35A/S48T/T118I/V36M/W191S/Y91S)
Assay: MHC binding assay (UV-ligand exchange, β2m ELISA, peptide exchange yield)
Settings: binding to HLA-B*44:05
Outline: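 Binding is read as exchange yield, i.e. stabilized complex remaining after UV cleavage of a photolabile ligand in the presence of the candidate peptide. Streptavidin-captured monomers (100-fold dilution) are probed with HRP-anti-β2m, 1h at 37° C, TMB, A450. Standard curve: HLA-A*02:01/MLA-001 monomers at 15-500 ng/ml.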

| Substance | Peptide exchange (MHC class I binding score, peptide exchange yield) |
| --- | --- |
| 283 (VEEEISRHY; listed as Homo sapiens) [compound 283] | ++ (>20% = ++) |
| 292 (HELALRQTV; listed as Homo sapiens) [compound 292] | ++++ (>75% = ++++) |
| 87 (GEARGDQVDW; listed as Homo sapiens) [compound 87] | ++++ (>75% = ++++) |
| 313 (EEINQGGRKY; listed as Homo sapiens) [compound 313] | +++ (>50 = +++) |
| 130 (REYQEVMNSKL; listed as Homo sapiens) [compound 130] | +++ (>50 = +++) |
| 316 (RLWPEPENW; listed as Homo sapiens) [compound 316] | ++ (>20% = ++) |
| 305 (AEKNRRDAETW; listed as Homo sapiens) [compound 305] | ++++ (>75% = ++++) |
| 75 (LETSCGSSTAY; listed as Homo sapiens) [compound 75] | + (>10% = +) |
| 349 (LEWQHPSSW; listed as Homo sapiens) [compound 349] | ++++ (>75% = ++++) |
| 260 (VELMFPLLL; listed as Homo sapiens) [compound 260] | +++ (>50 = +++) |
| 152 (HENLIEDF; listed as Homo sapiens) [compound 152] | +++ (>50 = +++) |
| 307 (YEQLLKVVTW; listed as Homo sapiens) [compound 307] | ++++ (>75% = ++++) |
| 418 (GEPRKLLTQDW; listed as Homo sapiens) [compound 418] | +++ (>50 = +++) |
| 250 (AELDHLASL; listed as Homo sapiens) [compound 250] | +++ (>50 = +++) |
| 202 (RELPLVLLA; listed as Homo sapiens) [compound 202] | ++ (>20% = ++) |
| 417 (EESFRCLPEW; listed as Homo sapiens) [compound 417] | ++++ (>75% = ++++) |
| 93 (SEAGLTANQY; listed as Homo sapiens) [compound 93] | +++ (>50 = +++) |
| 319 (YEWEPFAEV; listed as Homo sapiens) [compound 319] | + (>10% = +) |
| 209 (AEGEPPPAL; listed as Homo sapiens) [compound 209] | +++ (>50 = +++) |
| 368 (KEKVPGITI; listed as Homo sapiens) [compound 368] | +++ (>50 = +++) |
| 124 (NENLDYAIL; listed as Homo sapiens) [compound 124] | ++++ (>75% = ++++) |
| 223 (SEVEGLAFV; listed as Homo sapiens) [compound 223] | +++ (>50 = +++) |
| 142 (QELFLHPVL; listed as Homo sapiens) [compound 142] | ++++ (>75% = ++++) |
| 163 (AEDEDGKIVGY; listed as Homo sapiens) [compound 163] | ++ (>20% = ++) |
| 286 (DELSVGRY; listed as Homo sapiens) [compound 286] | ++ (>20% = ++) |
| 159 (EEVQDGKVI; listed as Homo sapiens) [compound 159] | ++ (>20% = ++) |

| Substance | Peptide exchange (MHC class I binding score, peptide exchange yield) |
| --- | --- |
| 167 (AETENRYCV; listed as Homo sapiens) [compound 167] | +++ (>50 = +++) |
| 293 (QEDEQLLLRF; listed as Homo sapiens) [compound 293] | +++ (>50 = +++) |
| 181 (HEVAQDDHL; listed as Homo sapiens) [compound 181] | ++ (>20% = ++) |
| 174 (DENDAGNLITF; listed as Homo sapiens) [compound 174] | +++ (>50 = +++) |
| 146 (MEELRMLSF; listed as Homo sapiens) [compound 146] | +++ (>50 = +++) |
| 229 (AEDLEKKYA; listed as Homo sapiens) [compound 229] | ++ (>20% = ++) |
| 227 (ALTEDSIDDTF; listed as Homo sapiens) [compound 227] | + (>10% = +) |
| 120 (VTEGAVEVKY; listed as Homo sapiens) [compound 120] | + (>10% = +) |
| 269 (SEDLAVHL; listed as Homo sapiens) [compound 269] | ++++ (>75% = ++++) |
| 162 (EAYDIELNKW; listed as Homo sapiens) [compound 162] | +++ (>50 = +++) |
| 210 (AEGEPPPALAW; listed as Homo sapiens) [compound 210] | +++ (>50 = +++) |
| 233 (QEDKATQTL; listed as Homo sapiens) [compound 233] | ++++ (>75% = ++++) |
| 230 (AEALVDGKW; listed as Homo sapiens) [compound 230] | +++ (>50 = +++) |
| 165 (EEIEAHIAL; listed as Homo sapiens) [compound 165] | +++ (>50 = +++) |
| 327 (SEQHSLPVF; listed as Homo sapiens) [compound 327] | +++ (>50 = +++) |
| 111 (QEIDQKRLEF; listed as Homo sapiens) [compound 111] | ++ (>20% = ++) |
| 241 (QELLDIANYL; listed as Homo sapiens) [compound 241] | ++++ (>75% = ++++) |
| 317 (TEFQQIINL; listed as Homo sapiens) [compound 317] | ++++ (>75% = ++++) |
| 154 (NEAGEMIKHY; listed as Homo sapiens) [compound 154] | ++ (>20% = ++) |
| 303 (GEDAHLTQY; listed as Homo sapiens) [compound 303] | ++ (>20% = ++) |
| 365 (NESGKAFNY; listed as Homo sapiens) [compound 365] | ++++ (>75% = ++++) |
| 267 (VELEVPQL; listed as Homo sapiens) [compound 267] | ++ (>20% = ++) |
| 438 (AELDSKILAL; listed as Homo sapiens) [compound 438] | +++ (>50 = +++) |
| 91 (EESLLSSWDF; listed as Homo sapiens) [compound 91] | +++ (>50 = +++) |
| 99 (SECVKSLSF; listed as Homo sapiens) [compound 99] | ++++ (>75% = ++++) |
